Two molecules from patent US20200232972A1, “METHOD FOR SCREENING ANTI-AGING SUBSTANCES” (Shiseido Company, Ltd., priority 2017, published 2020) can be followed below.

This assay relates to young fibroblasts (MMP1 and collagen expression). Put plainly: Addition of senescence factor proteins to young fibroblasts: MMP1 and collagen gene expression by RT-PCR. The format is cell-based, Homo sapiens. Particulars: protein added at 10 μg/ml vs 0 μg/ml, 2 days; for MMP1 expression: FIG. 4(A); for expression of collagen (Collagen 1 gene): FIG. 4(B). Here is the method:
Dermal fibroblasts established from skin from the back of an adult were cultured in Dulbecco's Modified Eagle Medium supplemented with 10% FBS. Cells with a culture period of less than 1 month and Pdl<30 were used as normal fibroblasts (young fibroblasts). These cells were cultured for 3 months or more and cells which began to proliferate more slowly (doubling time less than 0.5/week and Pdl>50) were used as senescent cells. Normal fibroblasts were inoculated on the upper layer of a 6-well transwell system (Falcon; Franklin Lakes, N.J.) filled with Dulbecco's Modified Eagle Medium supplemented with 10% FBS until the density was 1250 cell/cm^2. Subconstructed senescent fibroblasts and normal fibroblasts were separately inoculated in two wells of the lower layer of the transwell system. The upper layer and the lower layer of the transwell system were combined and cultured for 2 days at 37° C. in a humidified atmosphere with 5% CO2, and the cells in the upper layer and the lower layer were recovered using Qiazole (Qiagen).
RNA was extracted from the recovered cell lysate using RNeasy Protect Kit (Qiagen) by following the instructions therefor, then Superscript VILO (Invitrogen) was used to reverse transcribe the RNA into cDNA by following the instructions. Using 28SrRNA as an internal standard, real time PCR was performed with LightCycler (commercially available) using the primer pairs for the following genes. The cycle threshold (Ct value) calculated by Lightcycler software ver. 3.5 was normalized for GAPDH mRNA of each sample.
The proteins of the candidate senescence factors (IGFBP7 and RSPO4) (purchased from Serotec, R&D SYSTEMS) were added to the culture medium for culturing the young fibroblasts at a concentration of 0 μg/ml and 10 μg/ml. After culturing for 2 days, the cells were then separately recovered using Qiazole (Qiagen). In the same way as disclosed in the section relating to quantitative RT-PCR, the expression levels of MMP1 and collagen were examined in the recovered cell lysate.

B1: IGFBP7: Homo sapiens insulin-like growth factor binding protein 7 protein, purchased (Serotec, R&D SYSTEMS), candidate senescence factor (protein, UniProt Q16270 27-282, looked up)
Insulin-like growth …: SSSDTCGPCEPASCPPLPPLGCLLGETRDACGCCPMCARGEGEPCGGGGAGRGYCAPGMECVKSRKRRKGKAGAAAGGPGVSGVCVCKSRYPVCGSDGTTYPSGCQLRAASQRAESRGEKAITQVSKGTCEQGPSIVTPPKDIWNVTGAQVYLSCEVIGIPTPVLIWNKVKRGHYGVQRTELLPGDRDNLAIQTRGGPEKHEVTGWVLVSPLSKEDAGEYECHASNSQGQASASAKITVVDALHEIPVKKGEGAEL
For the molecule B1, the MMP1 expression result is “increased” and the “expression of collagen (Collagen 1 gene)” value was “reduced”.

B2: RSPO4: Homo sapiens R-spondin family, member 4 protein, purchased (Serotec, R&D SYSTEMS), candidate senescence factor (protein, UniProt Q2I0M5 20-234, looked up)
R-spondin-4: LNRRKKQVGTGLGGNCTGCIICSEENGCSTCQQRLFLFIRREGIRQYGKCLHDCPPGYFGIRGQEVNRCKKCGATCESCFSQDFCIRCKRQFYLYKGKCLPTCPPGTLAHQNTRECQGECELGPWGGWSPCTHNGKTCGSAWGLESRVREAGRAGHEEAATCQVLSESRKCPIQRPCPGERSPGQKKGRKDRRPRKDRKLDRRLDVRPRQPGLQP
B2: the MMP1 expression result is on record as “increased” and the “expression of collagen (Collagen 1 gene)” value is recorded as “reduced”.
